In US20210138066A1, “REMOTE-CONTROLLED IMAGE-GUIDED DRUG DELIVERY VIA ULTRASOUND-MODULATED MOLECULAR DIFFUSION” (California Institute of Technology, priority 2019, published 2021):

Experiment: Payloads added to the reservoir: Stokes' diameter
Type: physicochemical

## Adalimumab
  Stokes' Diameter: 10 nm
